Measurements: patent US20230365705A1 (DYNAMICURE BIOTECHNOLOGY, published 2023)
Values joined by “and” are separate entries in the source; they are usually repeats but may differ in a detail not shown here. Equal entries are not always repeated.

T1: Human CD93 recombinant protein (Sino Biological Inc, Catalog #12589-H08H) (human, UniProt Q9NPY3 22-580)
T1 construct: Biotinylated (EZ-LINK NHS-PEG4 biotin) in the BLI assays; also called hCD93; His-tagged human CD93
T1 sequence (looked up): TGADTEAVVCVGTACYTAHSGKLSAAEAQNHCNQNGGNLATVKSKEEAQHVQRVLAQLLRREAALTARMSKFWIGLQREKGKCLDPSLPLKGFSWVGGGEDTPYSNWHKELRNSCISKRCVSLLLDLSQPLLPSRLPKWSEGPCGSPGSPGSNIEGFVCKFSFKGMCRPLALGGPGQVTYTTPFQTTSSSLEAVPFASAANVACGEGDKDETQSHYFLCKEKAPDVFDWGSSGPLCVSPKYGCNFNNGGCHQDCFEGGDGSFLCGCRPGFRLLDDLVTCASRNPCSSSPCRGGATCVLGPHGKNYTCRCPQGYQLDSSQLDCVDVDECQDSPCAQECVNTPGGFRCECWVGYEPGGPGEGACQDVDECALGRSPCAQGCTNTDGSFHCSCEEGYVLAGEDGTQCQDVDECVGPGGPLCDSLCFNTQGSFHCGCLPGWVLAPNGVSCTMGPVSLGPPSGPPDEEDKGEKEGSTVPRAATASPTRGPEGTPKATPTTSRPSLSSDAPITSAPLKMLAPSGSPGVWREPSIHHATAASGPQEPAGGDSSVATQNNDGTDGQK

T2: Human CD93 on cells (human CD93 expressing CHO cells; HUVEC, U937 and KG1a cells) (human, UniProt Q9NPY3 22-652)
T2 construct: whole, on cells; also called hCD93 expressing CHO cells; hCD93 CHO cells
T2 sequence (looked up): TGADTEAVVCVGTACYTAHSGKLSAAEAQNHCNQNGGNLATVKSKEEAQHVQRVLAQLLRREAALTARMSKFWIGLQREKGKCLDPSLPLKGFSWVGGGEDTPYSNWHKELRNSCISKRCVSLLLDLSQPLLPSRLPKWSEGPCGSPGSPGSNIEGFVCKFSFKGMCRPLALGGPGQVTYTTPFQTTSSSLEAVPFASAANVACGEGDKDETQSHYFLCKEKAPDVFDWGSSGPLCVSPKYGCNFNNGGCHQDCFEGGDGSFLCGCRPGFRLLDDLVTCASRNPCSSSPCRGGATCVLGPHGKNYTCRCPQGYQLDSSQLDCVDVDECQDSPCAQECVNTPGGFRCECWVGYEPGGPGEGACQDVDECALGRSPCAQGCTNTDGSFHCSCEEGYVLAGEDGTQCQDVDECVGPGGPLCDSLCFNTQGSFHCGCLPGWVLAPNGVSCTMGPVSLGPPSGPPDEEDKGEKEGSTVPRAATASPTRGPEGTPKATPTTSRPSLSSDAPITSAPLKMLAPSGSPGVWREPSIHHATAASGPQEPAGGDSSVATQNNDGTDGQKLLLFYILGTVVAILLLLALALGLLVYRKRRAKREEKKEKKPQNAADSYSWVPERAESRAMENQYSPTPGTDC

T3: rm VEGFA (recombinant mouse VEGFA) (mouse, UniProt Q00731-2 27-190, limits assumed)
T3 sequence (looked up): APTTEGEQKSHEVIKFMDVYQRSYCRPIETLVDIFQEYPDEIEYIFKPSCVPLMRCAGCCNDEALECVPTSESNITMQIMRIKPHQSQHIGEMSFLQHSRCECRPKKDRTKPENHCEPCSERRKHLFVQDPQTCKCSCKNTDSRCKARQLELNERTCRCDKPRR

B1: humanized 17B10 (VH3VL3, i.e., H3L3) with a chimeric Fc containing mouse IgG1 CH2 and CH3 domains and human CH1 domains (antibody, V domains shown)
VH: QVQLVQSGPEVKKPGESLKISCKASGYAFSSYWLNWVRQMPGKGLEWMGRIYPGDGDTDYNGKFKGQVTISADKSSGTAYLQLSSLKASDTAVYFCVRGDGYWAMDYWGQGTLVTVSS
VL: DIVMTQSPDSLAVSLGERATINCRFSKSLLHSNGITYLYWYQQKPGQPPKLLIYQMSNLASGVPDRFSGSGSGTDFTLTISSLQAEDVAVYYCAQNLELPWTFGGGTKLEIK
notes: Human CH1, mouse IgG1 CH2 and CH3; also called h17B10-H3L3; humanized 17B10-mFc
B2: 16E4-hIgG1 (recombinant chimeric 16E4) (antibody, V domains shown)
VH: QVQLQQPGAELVKPGASVKLSCKASGYTFTSYWMHWVKQRPGQGLEWIGEIDPSASYTYYNQKFKGKATLTVDKSSSTAYMQLSSLTSEDSAVYYCARSVYYGNKYFDVWGAGTTVTVSS
VL: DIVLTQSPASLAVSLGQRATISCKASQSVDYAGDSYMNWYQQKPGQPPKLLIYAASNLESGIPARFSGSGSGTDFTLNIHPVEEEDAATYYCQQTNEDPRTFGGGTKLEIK
notes: the same paragraph once calls it 'humanized'; also called recombinant 16E4
B3: 7F3-hIgG1 (recombinant chimeric 7F3) (antibody, V domains shown)
VH: QVQLQQSGADLVRPGASVKLSCKASGYTFTDYEMHWVKQTPVYGLEWIGGIDPETGDTAYNQNFKGKATLTADKSSSAAYMELRSLTSEDSAVYYCTNYGNLYYYAMDYWGQGTSVTVSS
VL: ENVLTQSPAIMSASPGEKVTMTCRASSSVSSSYLHWYQQKSGASPKLWIYSTSNLAFGVPARFSGSGSGTSYSLTISSVEAEDAATYYCQQYSGYPLTFGSGTKLEIK
notes: also called chimeric 7F3-hIgG1; recombinant 7F3
B4: humanized 7F3/VEGFRFc (h7F3/VEGFRFc) (bispecific antibody, human IgG1, kappa)
heavy: not shown
light: EIVLTQSPSSLSASVGDRVTITCRASSSVSSSYLHWYQQKPGKAPKLLIYSTSNLAFGVPSRFSGSGSGTSYTFTISSLQPEDIATYYCQQYSGYPLTFGSGTKLEIKRTVAAPSVFIFPPSDEQLKSGTASVVCLLNNFYPREAKVQWKVDNALQSGNSQESVTEQDSKDSTYSLSSTLTLSKADYEKHKVYACEVTHQGLSSPVTKSFNRGEC
notes: Full-length human IgG1 with VEGF-trap on the C-terminus of both heavy chains; also called humanized 7F3-Aflibercept; h7F3-VEGF trap
B5: chimeric 7F3/VEGFRFc (chimeric 7F3-Aflibercept) (bispecific antibody, human IgG1, kappa)
heavy: not shown
light: ENVLTQSPAIMSASPGEKVTMTCRASSSVSSSYLHWYQQKSGASPKLWIYSTSNLAFGVPARFSGSGSGTSYSLTISSVEAEDAATYYCQQYSGYPLTFGSGTKLEIKRTVAAPSVFIFPPSDEQLKSGTASVVCLLNNFYPREAKVQWKVDNALQSGNSQESVTEQDSKDSTYSLSSTLTLSKADYEKHKVYACEVTHQGLSSPVTKSFNRGEC
notes: also called chimeric 7F3/VEGFR construct

Experiments:
[1] = biological target: T1, Human CD93 recombinant protein (Sino …); test: ELISA, His-tagged human CD93 coated, OD450
Protocol: His-tagged human CD93 was coated onto a 96 well plate at 1 μg/mL in 1×PBS overnight at 4° C. The plate was washed with ELISA wash buffer (Boston BioProduct, Inc.) and the wells were blocked with ELISA blocking buffer for 1 hour at 37° C. […] The plate was washed with ELISA wash Buffer. […] The plate was washed with ELISA wash Buffer. HRP substrate was added for indirect detection of the antibodies binding to CD93.

[2] = biological target: T2, Human CD93 on cells (human CD93 …); test: flow cytometry, CHO cells overexpressing human CD93, antibody 0.01ug, mIgG1 as control, APC-A
[3] = biological target: T2, Human CD93 on cells (human CD93 …); test: flow cytometry titration on KG1a cells; column head printed kd, unit from the axis log (concentration (M))
[4] = biological target: T2, Human CD93 on cells (human CD93 …); test: flow cytometry titration on U937 cells; column head printed kd, unit from the axis log (concentration (M))
[5] = biological target: T1, Human CD93 recombinant protein (Sino …); test: ELISA, hCD93-His coated, OD450
Protocol: His-tagged human CD93 was coated onto a 96 well plate at 1 μg/mL in 1×PBS overnight at 4° C. The plate was washed with ELISA wash buffer (Boston BioProduct, Inc.) and the wells were blocked with ELISA blocking buffer for 1 hour at 37° C. Purified antibodies were serially diluted in ELISA blocking buffer (Boston BioProduct, Inc.) and incubated on the receptor for 1 hour at 37° C. The plate was washed with ELISA wash Buffer. […] The plate was washed with ELISA wash buffer. HRP substrate was added for indirect detection of the antibodies binding to CD93.

[6] = biological target: T1, Human CD93 recombinant protein (Sino …); test: summary table, column ELISA (hCD93)
[7] = biological target: T1, Human CD93 recombinant protein (Sino …); test: summary table, column Octet (hCD93)
[8] = biological target: T2, Human CD93 on cells (human CD93 …); test: flow cytometry on human CD93 expressing CHO cells
Protocol: Human CD93 expressing CHO cells were detached by incubation with TrypLE reagents (Thermo Fisher), which preserves the integrity of CD93 on the cell surface. Then the cells were incubated with serially diluted anti-CD93 antibodies for 30 minutes in 4° C. After washing by FACS buffer, the cells were incubated with Alexa Fluor 647 conjugated anti-human IgG (Jackson ImmunoResearch) for 30 minutes in 4° C. After washing by FACS buffer twice, the samples were acquired in NovoCyte Flow Cytometer and analyzed by NovoExpress software.

[9] = biological target: T1, Human CD93 recombinant protein (Sino …); test: ELISA, His-tagged human CD93 coated, OD450; remark: listed apart in the source
Protocol: His-tagged human CD93 was coated onto a 96 well plate at 1 μg/mL in 1×PBS overnight at 4° C. The plate was washed with ELISA wash buffer (Boston BioProduct, Inc.) and the wells were blocked with ELISA blocking buffer for 1 hour at 37° C. […] The plate was washed with ELISA wash Buffer. HRP-conjugated anti-human Fc antibody was incubated for 1 hour at 37° C. The plate was washed with ELISA wash Buffer. HRP substrate was added for indirect detection of the antibodies binding to CD93.

[10] = biological target: T1, Human CD93 recombinant protein (Sino …); test: BLI (Octet QKe), biotinylated human CD93 on streptavidin biosensors
Protocol: The binding affinity of anti-CD93 antibodies was determined with bio-layer interferometry using Octet QKe (Fortebio). […] Human CD93 recombinant protein (Sino Biological Inc, Catalog #12589-H08H) was biotinylated using EZ-LINK NHS-PEG4 biotin (Thermo Fisher Scientific). Streptavidin biosensors (Fortebio) were used to load biotinylated CD93 protein (300 seconds in 5 μg/ml). Baseline was stabilized for 60 seconds in 1×kinetics buffer (Fortebio) before anti-CD93 antibodies, at a serial dilution, were allowed to associate for 300 seconds with captured protein. Then the sensors were dissociated in 1× kinetics buffer for 600 seconds. […] (FIG. 41).

[11] = biological target: T4, rh VEGFA (recombinant human VEGFA) (human, UniProt P15692-4 27-191, limits assumed); test: ELISA, antigen coated at 1 µg/mL
Protocol: (§1) His-tagged human CD93, cyno CD93, human VEGFA, and mouse VEGFA were coated onto a 96 well plate at 1 μg/mL in 1× PBS overnight at 4′C. The plate was washed with ELISA wash buffer (Boston BioProduct, Inc.) and the wells were blocked with 3% BSA/PBS ELISA blocking buffer for 1 hour at 37′C. […] The plate was washed with ELISA wash Buffer. HRP conjugated Anti-human Fc was added and incubated for one hour at 37° C. The plate was washed with ELISA wash buffer and read in a microplate reader at 405 nm.

[12] = biological target: T3, rm VEGFA (recombinant mouse VEGFA); test: ELISA, mVEGFA coated at 1 µg/mL, anti-human Fc HRP; single bars, concentration not given
Protocol: as §1

[13] = biological target: T4, rh VEGFA (recombinant human VEGFA); test: BLI (Octet QKe), biotinylated rh VEGFA on streptavidin sensors
Protocol: (§2) The rh VEGFA was made in-house and biotinylated using EZ-LINK NHS-PEG4 biotin (Thermo Fisher Scientific). Streptavidin biosensors (Fortebio) were used to load biotinylated rh VEGFA protein (300 seconds in 5 μg/ml). […] Then the sensors were dissociated in 1× kinetics buffer for 600 seconds.

[14] = biological target: T4, rh VEGFA (recombinant human VEGFA); test: BLI (Octet), biotinylated rh VEGFA on streptavidin biosensors, sample in serial dilution
Protocol: as §2

[15] = biological target: T1, Human CD93 recombinant protein (Sino …); test: ELISA, antigen coated at 1 µg/mL
Protocol: as §1

[16] = biological target: T2, Human CD93 on cells (human CD93 …); test: flow cytometry on human CD93 expressing CHO cells (10 µg/ml by the text)

| Binder | EC50 [5] | EC50 [6] | Kd [7] | EC50 [8] | EC50 [9] | Kd [10] | koff [10] | kon [10] | further results |
| --- | --- | --- | --- | --- | --- | --- | --- | --- | --- |
| B1 |  |  |  |  |  |  |  |  | EC50 [1]: 213 pM; M2 gate, % of cells [2]: 93%; Kd [3]: 77.2 pM and 95.2 pM; Kd [4]: 104 pM and 94.4 pM |
| B2 | 22 pM | 41 pM | 135 pM | 240 pM | 41 pM | 135 pM | 2.93e-05 s⁻¹ | 217000 M⁻¹ s⁻¹ |  |
| B3 | 20 pM | 41 pM | 588 pM | 400 pM | 41 pM | 588 pM | 0.000335 s⁻¹ | 570000 M⁻¹ s⁻¹ | binding result [11]: no binding; binding result [12]: no binding |
| B4 |  |  |  |  |  |  |  |  | Kd [13]: 2000 pM; Kd [14]: 2010 pM; koff [14]: 0.000121 s⁻¹; kon [14]: 60300 M⁻¹ s⁻¹ |
| B5 |  |  |  |  |  |  |  |  | binding result [15]: binds; binding result [16]: binds |
